From patent US20200181248A1 (Chugai, published 2020)

Target: T1, soluble form of human GPC3 (lacking the C-terminal hydrophobic region 564-580, Flag-tagged, heparan sulfate … (human, UniProt P51654 25-563, heparan sulfate modification (smear-like band of 50 to 300 kDa)))
T1 construct: also called soluble form of GPC3; purified soluble form of GPC3; not shown: Flag tag from vector pCXND2-Flag
Test: sandwich ELISA: the concentration varied is that of soluble GPC3 ('GPC3 hepa'); M6B1 coated as capture, biotin-labeled M18D4 as detection

T1 sequence (P51654 25-563, form in doubt): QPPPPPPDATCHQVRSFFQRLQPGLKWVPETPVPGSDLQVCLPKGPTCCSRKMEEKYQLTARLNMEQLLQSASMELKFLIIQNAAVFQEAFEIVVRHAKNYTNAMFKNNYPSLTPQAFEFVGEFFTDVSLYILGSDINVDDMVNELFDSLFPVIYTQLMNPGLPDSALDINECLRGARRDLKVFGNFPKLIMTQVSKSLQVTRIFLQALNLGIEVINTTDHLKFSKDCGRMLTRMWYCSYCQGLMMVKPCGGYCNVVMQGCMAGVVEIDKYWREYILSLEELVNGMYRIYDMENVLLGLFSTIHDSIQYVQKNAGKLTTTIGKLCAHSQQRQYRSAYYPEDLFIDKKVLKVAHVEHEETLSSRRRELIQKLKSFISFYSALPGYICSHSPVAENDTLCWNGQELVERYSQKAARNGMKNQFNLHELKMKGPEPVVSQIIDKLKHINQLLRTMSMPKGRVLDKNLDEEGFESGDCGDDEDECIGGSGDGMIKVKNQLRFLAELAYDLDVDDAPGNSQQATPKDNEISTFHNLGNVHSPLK

B1: M6B1 (antibody, V domains shown)
VH: EVQLVESGGDLVKPGGSLKLSCAASGFTFSSYAMSWVRQTPEKRLEWVAAINSNGGTTYYPDTMKDRFTISRDNAKNTLYLQMSSLRSEDSALYYCTRHNGGYENYGWFAYWGQGTLVTVSA
VL: DIQMTQSPSSLSASLGGKVTITCKASQDINKNIIWYQHKPGKGPRLLIWYTSTLQPGIPSRFSGSGSGRDYSFSISNLEPEDIATYYCLQYDNLPRTFGGGTKLEIK
EC50 (read off the curve): ~0.02 µg/mL
